# In US20200338203A1 (Bicycle, published 2020):
# Numbered stars: 1 amine (or outer) side, 2 acyl side, 3 side chain; on linkers, the order of the positions; unused ones are H or OH. Bridge positions count the residues as written; N and C are the ends. Square brackets hold non-standard residues; d marks the D form. Ends that are not written are not given here. ThiAz = 3-(1,2,4-triazol-1-yl)-alanine, O=C([C@H](Cn1cncn1)N[*:1])[*:2]; Ala(2-furyl) = N[C@@H](Cc1ccco1)C(=O)O; 1Nal = N[C@@H](Cc1cccc2ccccc12)C(=O)O; TBMB = c1c(C[*:1])cc(C[*:3])cc1C[*:2]; hArg = N=C(N)NCCCC[C@H](N)C(=O)O; Tle = CC(C)(C)[C@H](N)C(=O)O; Pip = O=C(O)[C@@H]1CCCCN1; Aze = O=C(O)[C@@H]1CCN1; Aib = CC(C)(N)C(=O)O; azaGly = NNC(=O)O; βAla = NCCC(=O)O; Sar = CNCC(=O)O
# Target: T1, Human EphA2 (Ecto) (Human, UniProt P29317 24-537)
# T1 construct: extracellular domain
# Experiment: FP competition; competitor Compound 66
# Experimental: (§1) Peptides without a fluorescent tag were tested in competition with a peptide with a fluorescent tag and a known Kd (Table 2). Peptides were diluted to an appropriate concentration in assay buffer as described in the direct binding assay with a maximum of 5% DMSO, then serially diluted 1 in 2. Five μL of diluted peptide was added to the plate followed by 10 μL of human or mouse EphA2 (Table 1) at a fixed concentration which was dependent on the fluorescent peptide used (Table 2), then 10 μL fluorescent peptide added. Measurements were conducted as for the direct binding assay, however the gain was determined prior to the first measurement.
# T1 sequence (P29317 24-537): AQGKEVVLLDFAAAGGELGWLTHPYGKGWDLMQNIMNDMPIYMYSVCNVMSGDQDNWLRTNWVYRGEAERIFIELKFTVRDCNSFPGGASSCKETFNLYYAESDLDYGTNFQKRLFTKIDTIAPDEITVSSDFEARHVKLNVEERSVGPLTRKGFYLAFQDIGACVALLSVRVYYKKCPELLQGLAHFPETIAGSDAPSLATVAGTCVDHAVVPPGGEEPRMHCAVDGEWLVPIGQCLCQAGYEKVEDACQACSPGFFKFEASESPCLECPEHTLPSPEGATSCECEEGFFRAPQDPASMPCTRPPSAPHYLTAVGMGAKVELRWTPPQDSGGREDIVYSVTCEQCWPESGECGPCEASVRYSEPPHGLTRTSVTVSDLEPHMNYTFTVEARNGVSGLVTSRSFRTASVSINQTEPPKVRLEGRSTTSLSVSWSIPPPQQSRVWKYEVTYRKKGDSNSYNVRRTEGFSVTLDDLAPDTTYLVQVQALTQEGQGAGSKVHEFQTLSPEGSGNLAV
row,Ki,Binder
1,82.3 nM,ACMNDWLCSLGWTCA (linker 2-8-14 via TBMB) [Compound 24]
2,56 nM,ACMNDWLCQLGWTCA (linker 2-8-14 via TBMB) [Compound 30]
3,471 nM,[Sar][Sar]ACPWGPFWCPVNR[dA]GC (linker 4-11-18 via TBMB) [Compound 105]
4,78.5 nM,ACRVSPEYCPFGPVWCA (linker 2-9-16 via TBMB) [Compound 33]
5,26.5 nM,ACRVSPEYCPFGPYWCA (linker 2-9-16 via TBMB) [Compound 38]
6,61.2 nM,ACRVSPEYCPFGPEWCA (linker 2-9-16 via TBMB) [Compound 37]
7,40.5 nM,ACRVSPEYCPFGPSWCA (linker 2-9-16 via TBMB) [Compound 36]
8,138 nM,[Sar][Sar]ACPWGPYWCPVNRPGC (linker 4-11-18 via TBMB) [Compound 91]
9,95.8 nM,ACPWGPMWCPVNRPGCA (linker 2-9-16 via TBMB) [Compound 46]

# Target: T1, Human EphA2 (Ecto)
# Experiment: FP competition; competitor Compound 18
# Experimental: as §1
row,Binder,Ki
1,[Sar][Sar]AH[dA]VPCPWGPFWCPVNRPGC (linker 8-15-22 via TBMB) [Compound 206],8.3 nM
2,[Sar][Sar]AHD[Tle]PCPWGPFWCPVNRPGC (linker 8-15-22 via TBMB) [Compound 217],0.49 nM
3,[Sar][Sar]A[ThiAz]DVPCPWGPFWCPVNRPGC (linker 8-15-22 via TBMB) [Compound 202],0.7 nM
4,[Sar][Sar]A[Ala(2-furyl)]DVPCPWGPFWCPVNRPGC (linker 8-15-22 via TBMB) [Compound 203],0.49 nM
5,AHDVPCPWGPFWCPVNRPGCA (linker 6-13-20 via TBMB) [Compound 59],0.54 nM
6,[Sar][Sar]AHD[Aib]PCPWGPFWCPVNRPGC (linker 8-15-22 via TBMB) [Compound 216],2.77 nM
7,[Sar][Sar]AHDV[dA]CPWGPFWCPVNRPGC (linker 8-15-22 via TBMB) [Compound 219],15 nM
8,Ac-[Sar][Sar]AH[dD]V[Sar]CPWGPFWCPVNRPGC (linker 8-15-22 via TBMB) [Compound 212],4.95 nM
9,[Sar][Sar]AHD[dA]PCPWGPFWCPVNRPGC (linker 8-15-22 via TBMB) [Compound 215],26 nM
10,[Sar][Sar]AH[dD]VPCPWGPFWCPVNRPGC (linker 8-15-22 via TBMB) [Compound 209],1.25 nM
11,[Sar][Sar]AH[dE]VPCPWGPFWCPVNRPGC (linker 8-15-22 via TBMB) [Compound 208],2 nM
12,Ac-[Sar][Sar]AH[dD]V[Aib]CPWGPFWCPVNRPGC (linker 8-15-22 via TBMB) [Compound 213],1.9 nM
13,AGEMACPWGPFWCPVNRPGCA (linker 6-13-20 via TBMB) [Compound 53],12.3 nM
14,Ac-[Sar][Sar]AH[dD][Tle]PCPWGPFWCPVNRPGC (linker 8-15-22 via TBMB) [Compound 211],3.1 nM
15,Ac-[Sar][Sar]A[dH]D[Tle]PCPWGPFWCPVNRPGC (linker 8-15-22 via TBMB) [Compound 204],2.15 nM
16,Ac-[Sar][Sar]AH[dD]VPCPWGPFWCPVNRPGC (linker 8-15-22 via TBMB) [Compound 210],1.1 nM

# Now from value to binder:
row,Ki,Binder
1,0.84 nM,[βAla][Sar][Sar][Sar][Sar][Sar][Sar][Sar][Sar][Sar][Sar]H[dD]VPCPWGPFWCPVNRPGC (linker 16-23-30 via TBMB) [Compound 226]
2,0.75 nM,Ac-[Sar][Sar]AH[dD]VPCP[1Nal]GPFWCP[Tle]N[hArg]PGC (linker 8-15-22 via TBMB) [Compound 227]
3,0.28 nM,Ac-[Sar][Sar]A[dD]DVTCP[1Nal]GPF[1Nal]CPVNRPGC (linker 8-15-22 via TBMB) [Compound 283]
4,0.37 nM,[βAla][Sar][Sar][Sar][Sar][Sar][Sar][Sar][Sar][Sar][Sar]H[dD]VPCP[1Nal]G[Aib]F[1Nal]CP[Tle]NRPGC (linker 16-23-30 via TBMB) [Compound 252]
5,0.87 nM,Ac-[Sar][Sar]A[dD]DVTCP[1Nal]GPFWCPVNRPGC (linker 8-15-22 via TBMB) [Compound 282]
6,0.83 nM,[Sar][Sar]AHDV[Aib]CPWGPFWCPVNRPGC (linker 8-15-22 via TBMB) [Compound 220]
7,1.29 nM,[βAla][Sar][Sar][Sar][Sar][Sar][Sar][Sar][Sar][Sar][Sar]HDVPCPWGPFWCPVNRPGC (linker 16-23-30 via TBMB) [Compound 223]
8,1.8 nM,Ac-[Sar][Sar]A[dH]DVPCP[1Nal]GPFWCP[Tle]N[hArg]PGC (linker 8-15-22 via TBMB) [Compound 230]
9,5.1 nM,Ac-[Sar][Sar]A[dH]DVPCPWGPFWCP[hArg]NRPGC (linker 8-15-22 via TBMB) [Compound 229]
10,1.09 nM,Ac-[Sar][Sar][dH]DVPCPWGPFWCPVNRPGC (linker 7-14-21 via TBMB) [Compound 224]
11,1.52 nM,Ac-[Sar][Sar]H[dD]VPCPWG[Aib]FWCP[Tle]NR[Aib]GC (linker 7-14-21 via TBMB) [Compound 270]
12,3.8 nM,Ac-[Sar][Sar]A[dD]DVTCP[1Nal]G[Aib]FWCP[Tle]N[hArg]PGC (linker 8-15-22 via TBMB) [Compound 284]
13,3.1 nM,[Sar][Sar]AHDV[Aze]CPWGPFWCPVNRPGC (linker 8-15-22 via TBMB) [Compound 221]
14,0.66 nM,Ac-[Sar][Sar]H[dD]VPCPW[azaGly]PFWCPVNRPGC (linker 7-14-21 via TBMB) [Compound 267]
15,4.8 nM,Ac-[Sar][Sar]A[dH]DVPCPWG[Aib]FWCP[Tle]NR[Aib]GC (linker 8-15-22 via TBMB) [Compound 233]
16,0.63 nM,Ac-[Sar][Sar]H[dD]VPCP[1Nal]G[Aib]F[1Nal]CPVNR[Aib]GC (linker 7-14-21 via TBMB) [Compound 261]
17,3.66 nM,[βAla][Sar][Sar][Sar][Sar][Sar][Sar][Sar][Sar][Sar][Sar]H[dD]VPCPWG[Aib]FWCP[Tle]N[hArg]P[dD]C (linker 16-23-30 via TBMB) [Compound 271]
18,1.24 nM,Ac-[Sar][Sar]H[dD]VPCPWG[Aib]F[1Nal]CPVNR[Aib]GC (linker 7-14-21 via TBMB) [Compound 268]
19,1.6 nM,Ac-[Sar][Sar]H[dD]VPCP[1Nal]G[Aib]FWCPVNR[Aib]GC (linker 7-14-21 via TBMB) [Compound 266]
20,3.99 nM,[βAla][Sar][Sar][Sar][Sar][Sar][Sar][Sar][Sar][Sar][Sar]H[dD]VPCPWGP[hArg]WCP[Tle]N[hArg]P[dD]C (linker 16-23-30 via TBMB) [Compound 272]
21,3.4 nM,[Sar][Sar]AHDV[Pip]CPWGPFWCPVNRPGC (linker 8-15-22 via TBMB) [Compound 222]
